# Laboratory results as given in paper doi:10.1101/2025.09.08.674899 (bioRxiv, 2025).
# T1: PSAF subunit of Chlamydomonas reinhardtii Photosystem I (Chlamydomonas reinhardtii (endogenous …, UniProt P12356 63-227))
# T1 sequence (looked up): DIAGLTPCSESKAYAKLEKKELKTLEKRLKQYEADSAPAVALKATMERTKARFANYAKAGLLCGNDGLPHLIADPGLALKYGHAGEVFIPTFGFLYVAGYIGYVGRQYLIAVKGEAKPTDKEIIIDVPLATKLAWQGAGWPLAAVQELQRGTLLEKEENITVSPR
# Target: T1, PSAF subunit of Chlamydomonas …
# Assay: cross-linking
binder,measurement,value
"Chlamydomonas reinhardtii cytochrome c6 E71Q (natural protein, heme (c-type cytochrome)) ADLALGAQVFNGNCAACHMGGRNSVMPEKTLDKAALEQYLDGGFKVESIIYQVENGKGAMPAWADRLSEEQIQAVAEYVFKQATDAAWKY",binding result,binds
